# Measurements taken from IntAct's records for PubMed 22056926.
# B1: Cell division protein ZapB (Escherichia coli (strain K12)), P0AF36 (parent)
# chain: MTMSLEVFEKLEAKVQQAIDTITLLQMEIEELKEKNNSLSQEVQNAQHQREELERENNHLKEQQNGWQERLQALLGRMEEV
# partner: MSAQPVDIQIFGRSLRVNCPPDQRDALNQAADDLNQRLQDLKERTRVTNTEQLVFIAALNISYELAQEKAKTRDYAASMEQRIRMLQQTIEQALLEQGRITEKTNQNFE
# Variants of: B1
# Conditions: with zapa_ecoli zapA
row,Variant,effect of a mutation on the interaction
1,F8A;E9A,decreasing interaction strength
2,K10A;L11A,decreasing interaction strength
3,S4A;L5A,decreasing interaction strength
